The record followed here is patent publication US10808017B2, “Ubiquitin variants and uses therof as 53BP1 inhibitors” (The Governing Council of the University of Toronto, priority 2016, dated 2020).

One assay has as its target T1, RERGL (Homo sapiens, UniProt Q9H628).
T1 construct: endogenous in cells; host or cells: HEK293 Flp-In/T-REx cells
T1 sequence (Q9H628 1-204): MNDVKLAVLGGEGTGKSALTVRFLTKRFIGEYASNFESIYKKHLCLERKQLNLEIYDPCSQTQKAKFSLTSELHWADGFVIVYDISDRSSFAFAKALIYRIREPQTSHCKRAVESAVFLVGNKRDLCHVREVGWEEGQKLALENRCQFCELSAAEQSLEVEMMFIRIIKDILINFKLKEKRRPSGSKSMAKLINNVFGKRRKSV
Kind of assay: Flag IP-MS of i53/i53-DM baits: prey RERGL. Particulars: 293T Flp-In/T-Rex extracts, LC-MS/MS, one column per replicate IP. Type of assay: binding. How it is done: (§1) Following immunoprecipitation of Flag-tagged i53 and i-53-DM from HEK293 Flp-In/T-REx cells, peptides were identified using LC-MS/MS. Proteins were digested in solution with trypsin (Sigma, T7575-1KT) and dried to completeness. For LC-MS/MS analysis, peptides were reconstituted in 5% formic acid and loaded onto a 12-15 cm fused silica column with pulled tip packed in-house with 3.5 μm Zorbax C18 (Agilent Technologies, Calif., USA).
(§2) i53 and i53-DM precipitates were analyzed using an LTQ (Thermo Scientific) coupled to an Agilent 1100 Series HPLC (Agilent Technologies). Peptides were eluted from the column using a 90 min period cycle with a linear gradient from 0% to 40% ACN in 0.1% formic acid. Tandem MS spectra were acquired in a data-dependent mode for the top 5 (LTQ) most abundant ions using collision-induced dissociation. Acquired spectra were searched against the human Refseq_V53 database using Mascot (Matrix Science).
(§3) 293T Flp-In/T-Rex cell lines were generated that expressed Flag-tagged i53 or i53-DM under the control of a tetracycline-inducible promoter as previously described. Nine IP-MS experiments were analyzed (3 biological replicate IPs each for control i53- and i53-DM expressing cell lines). The interacting proteins were identified by MASCOT to identify high-confidence interactors for i53. […]

Another assay concerns the target T2, RPL10 (Homo sapiens, UniProt P27635).
T2 construct: endogenous in cells; host or cells: HEK293 Flp-In/T-REx
The assay can be described thus: Flag IP-MS of i53/i53-DM baits: prey RPL10. The format is binding. Particulars: 293T Flp-In/T-Rex extracts, LC-MS/MS, one column per replicate IP. The procedure:
as §1, §2, §3

The next assay deals with T3, KRT6A (Homo sapiens, UniProt P02538).
T3 construct: Following immunoprecipitation of Flag-tagged i53 and i-53-DM from HEK293 Flp-In/T-REx cells, peptides were identified using LC-MS/MS; endogenous in cells; host or cells: HEK293 Flp-In/T-REx cells
T3 sequence (P02538 1-564): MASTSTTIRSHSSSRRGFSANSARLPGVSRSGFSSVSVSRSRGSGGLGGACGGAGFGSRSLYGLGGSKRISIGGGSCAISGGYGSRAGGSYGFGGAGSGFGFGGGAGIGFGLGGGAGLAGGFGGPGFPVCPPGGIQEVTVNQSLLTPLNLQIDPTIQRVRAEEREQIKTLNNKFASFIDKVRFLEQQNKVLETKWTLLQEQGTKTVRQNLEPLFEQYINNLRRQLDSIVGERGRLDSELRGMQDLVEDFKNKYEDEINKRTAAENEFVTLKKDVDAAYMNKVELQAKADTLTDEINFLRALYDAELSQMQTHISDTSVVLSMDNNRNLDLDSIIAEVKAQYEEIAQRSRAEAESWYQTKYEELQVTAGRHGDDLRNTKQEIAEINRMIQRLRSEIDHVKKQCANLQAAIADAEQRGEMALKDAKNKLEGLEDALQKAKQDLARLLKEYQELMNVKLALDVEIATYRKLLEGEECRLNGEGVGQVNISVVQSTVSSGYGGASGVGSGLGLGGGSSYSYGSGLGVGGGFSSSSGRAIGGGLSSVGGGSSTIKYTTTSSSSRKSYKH
Kind of assay: Flag IP-MS of i53/i53-DM baits: prey KRT6A. Particulars: 293T Flp-In/T-Rex extracts, LC-MS/MS, one column per replicate IP. Type of assay: binding. How it is done:
as §1, §2, §3

In a further assay the target is T4, RPL17 (Homo sapiens, UniProt P18621).
T4 construct: endogenous in cells; host or cells: HEK293 Flp-In/T-REx
The assay can be described thus: Flag IP-MS of i53/i53-DM baits: prey RPL17. Type of assay: binding. Particulars: 293T Flp-In/T-Rex extracts, LC-MS/MS, one column per replicate IP. The procedure: as §1, §2, §3

Another assay has as its target T5, INTS3 (Homo sapiens, UniProt Q68E01).
T5 construct: Following immunoprecipitation of Flag-tagged i53 and i-53-DM from HEK293 Flp-In/T-REx cells, peptides were identified using LC-MS/MS; endogenous in cells; host or cells: HEK293 Flp-In/T-REx cells
The assay can be described thus: Flag IP-MS of i53/i53-DM baits: prey INTS3. Type of assay: binding. The conditions noted are these: 293T Flp-In/T-Rex extracts, LC-MS/MS, one column per replicate IP. How it is done:
as §1, §2, §3

Another assay deals with T6, CAPZA2 (Homo sapiens, UniProt P47755).
T6 construct: endogenous in cells; host or cells: HEK293 Flp-In/T-REx
Kind of assay: Flag IP-MS of i53/i53-DM baits: prey CAPZA2. Particulars: 293T Flp-In/T-Rex extracts, LC-MS/MS, one column per replicate IP. Type of assay: binding. How it is done: as §1, §2, §3

The subject of assay [1] is BRCA1 focus formation in U2OS cells. The assay can be described thus: Ionizing radiation focus formation, BRCA1 (immunofluorescence). Type of assay: cell-based. Particulars: 10 Gy. The procedure: FIG. 3. The i53 protein inhibits 53BP1. FIG. 3A-B, U2OS cells were transfected with vectors expressing i53, its 53BP1-binding deficient mutant (DM) or an empty vector (EV) control. Cells were then X-irradiated with a 10 Gy dose and processed for immunofluorescence with the indicated antibodies 1 h post-irradiation (IR). DAPI staining (not shown) was used to delineate the outline (dashed lines) of the cell nuclei. The region in the magnified inset is indicated with a square. Quantitation of the experiment is shown in panel (a) and data is indicated as the mean±s.e.m (N=3), whereas in (b) representative micrographs are shown. Arrowheads indicate Flag-positive cells. FIG. 3C, Parental or 53BP1ΔU2OS cells transfected with vectors expressing i53, the DM mutant or an empty vector (EV) control were irradiated (10 Gy) 1 h before being processed for immunofluorescence. Cell cycle stage was assessed by Cyclin A staining. The data is presented as the mean±s.e.m.; N=3. FIG. 3D, Immunoprecipitation (IP) of Flag-tagged proteins from extracts prepared from 293T cells transfected with vectors expressing Flag-i53 or the i53-DM mutant. Proteins were separated by SDS-PAGE and immunoblotted (IB) for Flag and 53BP1. […]

T5 sequence (Q68E01 whole entry): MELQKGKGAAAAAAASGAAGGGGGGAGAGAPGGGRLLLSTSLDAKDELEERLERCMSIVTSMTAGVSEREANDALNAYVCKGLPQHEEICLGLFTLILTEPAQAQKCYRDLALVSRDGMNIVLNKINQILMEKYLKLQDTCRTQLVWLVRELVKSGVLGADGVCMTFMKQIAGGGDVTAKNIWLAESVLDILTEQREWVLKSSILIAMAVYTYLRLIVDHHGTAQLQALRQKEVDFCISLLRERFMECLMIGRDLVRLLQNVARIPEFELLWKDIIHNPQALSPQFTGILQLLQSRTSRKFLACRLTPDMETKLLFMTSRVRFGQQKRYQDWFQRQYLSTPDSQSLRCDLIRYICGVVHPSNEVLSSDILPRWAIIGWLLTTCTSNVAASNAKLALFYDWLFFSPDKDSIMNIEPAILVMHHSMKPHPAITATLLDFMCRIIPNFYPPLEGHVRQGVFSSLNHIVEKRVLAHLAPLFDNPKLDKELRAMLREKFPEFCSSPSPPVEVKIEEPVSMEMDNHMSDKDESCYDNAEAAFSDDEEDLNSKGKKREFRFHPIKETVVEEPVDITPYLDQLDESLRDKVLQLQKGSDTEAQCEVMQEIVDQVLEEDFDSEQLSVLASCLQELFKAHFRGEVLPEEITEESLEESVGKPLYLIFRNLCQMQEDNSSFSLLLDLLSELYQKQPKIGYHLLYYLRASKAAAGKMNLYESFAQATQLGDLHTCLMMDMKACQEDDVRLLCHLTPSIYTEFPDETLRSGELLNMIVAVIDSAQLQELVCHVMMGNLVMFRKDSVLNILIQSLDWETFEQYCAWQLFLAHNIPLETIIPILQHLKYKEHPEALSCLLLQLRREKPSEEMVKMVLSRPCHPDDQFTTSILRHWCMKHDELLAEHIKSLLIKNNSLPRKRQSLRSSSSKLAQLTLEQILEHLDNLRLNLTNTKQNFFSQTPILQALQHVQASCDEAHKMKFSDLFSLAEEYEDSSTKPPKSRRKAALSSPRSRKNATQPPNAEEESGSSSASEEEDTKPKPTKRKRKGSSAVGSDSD

With “i53-DM: 53BP1-binding deficient mutant of i53 (P69L, L70V)”, in the assay with RERGL, the “Total peptides, RERGL” value was 2. For the same substance, the “Total peptides, RPL10” value with RPL10 stood at 11. The “Total peptides, KRT6A” value in the assay with KRT6A was found to be 3. For the same substance, in the assay with RPL17, the “Total peptides, RPL17” value stood at 5. Also, the “Total peptides, INTS3” value with INTS3 was 3.
Turning to “i53: UbvG08 with C-terminal di-glycine removed and I44A mutation; genetically encoded inhibitor of 53BP1”, the “Total peptides, CAPZA2” value with CAPZA2 came to 7. Moreover, the “BRCA1 accumulation at DSB sites in G1 cells” value in assay [1] (U2OS cells, cell cycle stage by Cyclin A staining) is “induced BRCA1 accumulation at DSB sites in G1 cells”. Further, the BRCA1 focus formation result in assay [1] (transfected U2OS cells, 1 h post-irradiation) was “did not impact”.
